Assay results published in article PMC5376975, “Structural studies of RFCC tf18 reveal a novel chromatin recruitment role for Dcc1”.

What was measured:
Dcc1 triple mutant = target: T1, Dcc1 triple mutant (Saccharomyces cerevisiae, UniProt P25559 90-380, K364A;R367A;R380A); experiment: EMSA; EMSA, 6% native gel in 0.5x TBE, 4 C, DNA 1 uM unless stated; binding buffer, salt and pH not stated (protein storage 10 mM Tris pH 7.5, 150 mM NaCl, 0.5 mM TCEP for the complex); settings: protein: recombinant
T1 sequence: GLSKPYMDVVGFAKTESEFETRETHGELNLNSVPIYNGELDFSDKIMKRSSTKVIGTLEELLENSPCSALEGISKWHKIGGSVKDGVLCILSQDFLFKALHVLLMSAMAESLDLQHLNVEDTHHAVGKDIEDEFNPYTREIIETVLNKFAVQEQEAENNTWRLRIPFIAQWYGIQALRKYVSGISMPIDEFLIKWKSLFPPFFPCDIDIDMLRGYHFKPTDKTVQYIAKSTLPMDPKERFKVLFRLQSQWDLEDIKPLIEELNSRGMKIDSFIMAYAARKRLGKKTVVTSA

Dcc1 dWH3 = target: T2, Dcc1 dWH3 (Saccharomyces cerevisiae, UniProt P25559 90-318, del319-380); experiment: EMSA; also none at reduced DNA, overexposed gel; EMSA, 6% native gel in 0.5x TBE, 4 C, DNA 1 uM unless stated; binding buffer, salt and pH not stated (protein storage 10 mM Tris pH 7.5, 150 mM NaCl, 0.5 mM TCEP for the complex); settings: protein: recombinant; label: 5' 6-FAM on sense strand
T2 sequence: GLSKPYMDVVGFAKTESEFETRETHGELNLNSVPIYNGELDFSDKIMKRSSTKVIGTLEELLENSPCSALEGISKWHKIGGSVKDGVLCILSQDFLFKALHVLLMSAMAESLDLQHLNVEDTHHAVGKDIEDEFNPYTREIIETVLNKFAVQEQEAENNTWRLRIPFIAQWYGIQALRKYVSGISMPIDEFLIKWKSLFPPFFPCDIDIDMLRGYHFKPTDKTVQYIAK

B1: 22-mer dsDNA (dsDNA)
DNA 1: TCTCCACAGGAAACGGAGGGGT
DNA 2: ACCCCTCCGTTTCCTGTGGAGA
Dcc1 triple mutant; label: 5' 6-FAM on sense strand
  binding result: no binding
Dcc1 dWH3
  binding result: no binding

## TTTTTTTTTTTTTTTTTTTTTTTTT (ssDNA) [25-mer oligo d(T)]
Dcc1 triple mutant; label: 5' 6-FAM
  binding result: no binding
